Measurements: patent US20260042834A1 (HBM ALPHA THERAPEUTICS, published 2026)
Where a chain is given by its changes, count along the chain named. Read-outs that look alike come from different tables or passages of the source.

T1: CRH (NT-Biotin) (human and mouse (same sequence), not fully specified; biotin at the N-terminus)
T1 peptide: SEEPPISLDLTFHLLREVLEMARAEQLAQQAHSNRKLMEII

T2: CRH (CT-Biotin) (human and mouse (same sequence), biotin on an added C-terminal K (CRH-K-Biotin))
T2 construct: also called Peptide 4 (CRH-Biotin)
T2 peptide: T1 peptide

T3: corticotropin-releasing hormone (CRH) peptide (human and mouse (same sequence), not fully specified)
T3 peptide: T1 peptide

B1: PR302036 (antibody, human IgG1, kappa, V domains shown)
VH: EMQLVESGGGLVQPGGSLRLSCAASGFTFSNYWMNWVRQAPGKGLEWVAEIRLKSNNYATHYAESVKGRFTISRDDSKSSVYLQMNSLKTEDTAVYYCTVGTLVYWGQGTLVTVSS
VL: DIVLTQSPDSLAVSLGERATINCRASQSVSTSTYNYMHWFQQKPGQPPKLLIKFASNLESGVPDRFSGSGSGTDFTLTISSLQAEDTAVYYCQHSWEIPYTFGQGTKLEIKR
notes: humanized variant of PR301777
B2: PR302038 (antibody, human IgG1, kappa, V domains shown)
VH: B1 VH
VL: EIVLTQSPATLSLSPGERATLSCRASQSVSTSTYNYMHWFQQKPGQAPRLLIKFASNLESGIPARFSGSGSGTDFTLTISSLEPEDTAVYYCQHSWEIPYTFGQGTKLEIKR
notes: humanized variant of PR301777
B3: PR302041 (antibody, human IgG1, kappa, V domains shown)
VH: B1 VH
VL: DIQLTQSPSSLSASVGDRVTITCRASQSVSTSTYNYMHWFQQKPGKAPKLLIKFASNLESGVPSRFSGSGSGTDFTLTISSLQPEDTATYYCQHSWEIPYTFGQGTKLEIKR
notes: humanized variant of PR301777
B4: PR302034 (antibody, human IgG1, kappa, V domains shown)
VH: B1 VH with M2V, A49G, S79N, V81L
VL: B3 VL
notes: humanized variant of PR301777
B5: PR302069 (antibody, human IgG1, kappa, V domains shown)
VH: B1 VH with Q13K, S80T
VL: B3 VL
notes: humanized variant of PR301777
B6: PR302052 (antibody, human IgG1, kappa, V domains shown)
VH: B1 VH with R19K, P41S, S80T
VL: B2 VL
notes: humanized variant of PR301777
B7: PR302050 (antibody, human IgG1, kappa, V domains shown)
VH: B1 VH with R19K, P41S, S80T
VL: B1 VL
notes: humanized variant of PR301777
B8: PR302064 (antibody, human IgG1, kappa, V domains shown)
VH: B1 VH with Q13K, S80T
VL: B1 VL
notes: humanized variant of PR301777
B9: PR302029 (antibody, human IgG1, kappa, V domains shown)
VH: B1 VH with M2V, A49G, S79N, V81L
VL: B1 VL
notes: humanized variant of PR301777
B10: PR302045 (antibody, human IgG1, kappa, V domains shown)
VH: B1 VH with M2V, R19K, P41S, A49G, S79N, S80T, V81A, V100R
VL: B2 VL
notes: humanized variant of PR301777
B11: PR302048 (antibody, human IgG1, kappa, V domains shown)
VH: B1 VH with M2V, R19K, P41S, A49G, S79N, S80T, V81A, V100R
VL: B3 VL
notes: humanized variant of PR301777
B12: PR302031 (antibody, human IgG1, kappa, V domains shown)
VH: B1 VH with M2V, A49G, S79N, V81L
VL: B2 VL
notes: humanized variant of PR301777
B13: PR302043 (antibody, human IgG1, kappa, V domains shown)
VH: B1 VH with M2V, R19K, P41S, A49G, S79N, S80T, V81A, V100R
VL: B1 VL
notes: humanized variant of PR301777
B14: PR302066 (antibody, human IgG1, kappa, V domains shown)
VH: B1 VH with Q13K, S80T
VL: B2 VL
notes: humanized variant of PR301777
B15: PR301777 (antibody, human IgG1, kappa, V domains shown)
VH: EMKLEESGGGLVQPGGSMKLSCVASGFTFSNYWMNWVRQSPEKGLEWVAEIRLKSNNYATHYAESVKGRFTISRDDSKSGVYLQMNNLGAEDTGIYYCTVGTLVYWGQGTLVTVSA
VL: DIVLTQSPASLAVSLGQRATISCRASQSVSTSTYNYMHWFQQKPGQPPKLLIKFASNLESGVPARFSGSGSGTDFTLNIHPVEEEDTATFYCQHSWEIPYTFGGGTKLEIKR
notes: Series 5; mouse variable domains, human IgG1 wildtype Fc
B16: PR005656 (antibody, human IgG1, kappa, V domains shown)
VH: EVQLVESGGVLVQPGGSLRLSCAASGFTFSSYWMTWVRQAPGKGLEWVANIKQEGSEKYYVDSVKGRFTISRDNAKNSLFLQMNSLRAEDTAVYYCARTLIFDYWGQGTLVTVSS
VL: DIVMTQSPLSLPVTPGEPASISCRSSQSLLHSTGYNSLEWYLQKPGQSPQLLIYLGSNRASGVPDRFSGSGSGTDFTLKISRVEAEDVGIYYCMQTLQTPITFGQGTRLEIKR
notes: PTM-removal variant of PR004290
B17: PR005657 (antibody, human IgG1, kappa, V domains shown)
VH: B16 VH with E54D, G55A
VL: B16 VL
notes: as for B16
B18: PR005658 (antibody, human IgG1, kappa, V domains shown)
VH: B16 VH with E54D
VL: B16 VL with N36Q
notes: as for B16
B19: PR005660 (antibody, human IgG1, kappa, V domains shown)
VH: B16 VH
VL: B16 VL with N36Q
notes: as for B16

Legend:
CRH (NT-Biotin) [1] = biological target: T1, CRH (NT-Biotin); assay: ELISA, biotinylated CRH on streptavidin plate
Procedure: (§1) Streptavidin (Thermo, Cat: 21125) was diluted in PBS to a concentration of 2 μg/ml. 100 μl of diluted streptavidin was added per well to ELISA microplates, and the plates were incubated overnight at 4° C. […] 100 μL of 3,3′,5,5′-tetramethylbenzidine (TMB) substrate (Biopanda, Cat: TMB-S-003) was added, and the plates were incubated at room temperature for 15 minutes. 100 μL of ELISA stopping solution (Solarbio, Cat #: C1058) was added to terminate the reaction, and the optical density at 450 nm (OD450 nm) was determined by an ELISA plate reader (Molecular Devices, Spectra max 384 plus).

CRH (CT-Biotin) [2] = biological target: T2, CRH (CT-Biotin); assay: ELISA, biotinylated CRH on streptavidin plate
Procedure: as §1

[3] = biological target: T3, corticotropin-releasing hormone (CRH) …; assay: cell-based or functional assay
[4] = biological target: T3, corticotropin-releasing hormone (CRH) …; assay: cell-based or functional assay
CRH (NT-Biotin) [5] = biological target: T1, CRH (NT-Biotin); assay: ELISA, biotinylated CRH on streptavidin plate
Procedure: as §1

CRH (CT-Biotin) [6] = biological target: T2, CRH (CT-Biotin); assay: ELISA, biotinylated CRH on streptavidin plate
Procedure: as §1

[7] = biological target: T3, corticotropin-releasing hormone (CRH) …; assay: cell-based or functional assay

Row | EC50 (CRH (NT-Biotin) [1]) | EC50 (CRH (CT-Biotin) [2]) | hCRHR1 Luciferase Reporter Assay IC50 [3] | mCrhr1 Luciferase Reporter Assay IC50 [3] | hCRHR1 Luciferase Reporter Assay IC50 [4] | mCrhr1 Luciferase Reporter Assay IC50 [4] | EC50 (CRH (NT-Biotin) [5]) | EC50 (CRH (CT-Biotin) [6]) | hCRHR1 Luciferase Reporter Assay IC50 [7] | mCrhr1 Luciferase Reporter Assay IC50 [7] | Binder
1 | 0.04 nM | 0.033 nM | 1.4 nM | 3.03 nM |  |  |  |  |  |  | B1
2 | 0.065 nM | 0.04 nM | 3.34 nM | 10.1 nM |  |  |  |  |  |  | B2
3 | 0.063 nM | 0.035 nM | 2.54 nM | 7.17 nM |  |  |  |  |  |  | B3
4 | 0.026 nM | 0.022 nM | 6.87 nM | 204 nM |  |  |  |  |  |  | B4
5 | 0.061 nM | 0.016 nM | 1.54 nM | 4.4 nM |  |  |  |  |  |  | B5
6 | 0.048 nM | 0.018 nM | 2.05 nM | 7.32 nM |  |  |  |  |  |  | B6
7 | 0.021 nM | 0.01 nM | 0.572 nM | 2.7 nM |  |  |  |  |  |  | B7
8 | 0.062 nM | 0.022 nM | 0.531 nM | 2.39 nM | 0.989 nM | 4.92 nM |  |  |  |  | B8
9 | 0.03 nM | 0.027 nM | 2.65 nM | 13.9 nM |  |  |  |  |  |  | B9
10 | 0.128 nM | 0.046 nM | 15.3 nM |  |  |  |  |  |  |  | B10
11 | 0.043 nM | 0.024 nM | 6.66 nM | 33.3 nM |  |  |  |  |  |  | B11
12 | 0.037 nM | 0.028 nM | 14 nM |  |  |  |  |  |  |  | B12
13 | 0.046 nM | 0.03 nM | 3.87 nM | 9.97 nM |  |  |  |  |  |  | B13
14 | 0.077 nM | 0.019 nM | 2.49 nM | 11.5 nM |  |  |  |  |  |  | B14
15 | 0.043 nM | 0.043 nM | 0.674 nM | 2.42 nM |  |  |  |  |  |  | B15
16 |  |  |  |  |  |  | 0.026 nM | 0.033 nM | 1.74 nM | 4.26 nM | B16
17 |  |  |  |  |  |  |  | 0.045 nM | 4.6 nM | 11.8 nM | B17
18 |  |  |  |  |  |  | 0.026 nM | 0.044 nM | 16.2 nM | 29.7 nM | B18
19 |  |  |  |  |  |  | 0.033 nM | 0.051 nM | 10.3 nM | 29 nM | B19
